Source: IntAct's records for PubMed 20129058

B1: Replicative helicase loader DnaC (Escherichia coli (strain K12)), P0AEF0 (parent)
chain: MKNVGDLMQRLQKMMPAHIKPAFKTGEELLAWQKEQGAIRSAALERENRAMKMQRTFNRSGIRPLHQNCSFENYRVECEGQMNALSKARQYVEEFDGNIASFIFSGKPGTGKNHLAAAICNELLLRGKSVLIITVADIMSAMKDTFRNSGTSEEQLLNDLSNVDLLVIDEIGVQTESKYEKVIINQIVDRRSSSKRPTGMLTNSNMEEMTKLLGERVMDRMRLGNSLWVIFNWDSYRSRVTGKEY

Variants of: B1
Conditions: with dnab_ecoli dnaB

Variant | effect of a mutation on the interaction
MKNVGDLMQRQQKMMPAHIKPAFKTGEELLAWQKEQGAIRSAALERENRAMKMQRTFNRSGIRPLHQNCSFENYRVECEGQMNALSKARQYVEEFDGNIASFIFSGKPGTGKNHLAAAICNELLLRGKSVLIITVADIMSAMKDTFRNSGTSEEQLLNDLSNVDLLVIDEIGVQTESKYEKVIINQIVDRRSSSKRPTGMLTNSNMEEMTKLLGERVMDRMRLGNSLWVIFNWDSYRSRVTGKEY [L11Q] | disrupting interaction
